Measured values reported in patent US12497462 (IMMUNITYBIO, dated 2025).
Each block holds one binder with its values, some of them ahead of it.

Key:
[1] = target: T1, Human CD26 on transfected CHO cells (human, UniProt P27487 1-766); assay: flow cytometry on human CD26-transfected CHO cells, antibody 50 nM, goat anti-human IgG-PE
T1 construct: whole, on cells; also called CHO26; CD26 positive CHO cells

[2] = target: T2, Human CD26-Fc fusion protein (human); assay: ELISA, CD26-Fc coated, purified IgG1 kappa antibody in 3-fold steps, goat anti-human kappa-HRP/ABTS
T2 construct: also called CD26/beads
T2 sequence (chain, as listed by the source): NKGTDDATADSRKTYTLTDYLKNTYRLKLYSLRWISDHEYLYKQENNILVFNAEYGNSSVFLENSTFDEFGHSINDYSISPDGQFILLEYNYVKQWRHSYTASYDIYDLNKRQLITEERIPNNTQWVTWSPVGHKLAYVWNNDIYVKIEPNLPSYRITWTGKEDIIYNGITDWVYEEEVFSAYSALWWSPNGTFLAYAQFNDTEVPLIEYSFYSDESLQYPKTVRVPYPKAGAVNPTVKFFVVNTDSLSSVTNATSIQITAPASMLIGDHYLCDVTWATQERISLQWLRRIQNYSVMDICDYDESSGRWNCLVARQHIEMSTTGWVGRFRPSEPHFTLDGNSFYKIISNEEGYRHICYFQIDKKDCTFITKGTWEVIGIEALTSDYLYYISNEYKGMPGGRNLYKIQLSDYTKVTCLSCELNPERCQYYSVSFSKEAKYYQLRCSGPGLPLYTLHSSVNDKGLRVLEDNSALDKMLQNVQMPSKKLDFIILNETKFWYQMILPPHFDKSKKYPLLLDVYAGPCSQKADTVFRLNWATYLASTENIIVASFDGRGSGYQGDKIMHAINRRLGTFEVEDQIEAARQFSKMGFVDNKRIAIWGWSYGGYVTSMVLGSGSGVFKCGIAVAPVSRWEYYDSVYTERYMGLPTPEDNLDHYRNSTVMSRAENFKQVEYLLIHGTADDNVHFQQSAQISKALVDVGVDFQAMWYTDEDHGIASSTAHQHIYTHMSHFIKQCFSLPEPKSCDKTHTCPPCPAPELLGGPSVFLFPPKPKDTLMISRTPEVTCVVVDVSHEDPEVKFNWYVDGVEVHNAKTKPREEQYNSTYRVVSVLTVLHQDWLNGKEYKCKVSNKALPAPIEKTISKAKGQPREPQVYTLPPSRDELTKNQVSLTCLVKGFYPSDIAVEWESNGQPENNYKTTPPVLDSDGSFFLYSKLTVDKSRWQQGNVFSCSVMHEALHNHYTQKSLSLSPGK

[3] = target: T2, Human CD26-Fc fusion protein; assay: ELISA, CD26-Fc coated, purified IgG1 kappa antibody, goat anti-human kappa-HRP/ABTS
goat anti-human IgG = assay: ELISA, goat anti-human IgG coated (control plate), goat anti-human kappa-HRP/ABTS
[4] = target: T2, Human CD26-Fc fusion protein; assay: competition ELISA on coated CD26-Fc (5 µg/mL): ADA is varied and the blocked molecule is biotinylated CD26Ab-01D at 5 nM, read with SAHRP/ABTS

T1 sequence (P27487 whole entry): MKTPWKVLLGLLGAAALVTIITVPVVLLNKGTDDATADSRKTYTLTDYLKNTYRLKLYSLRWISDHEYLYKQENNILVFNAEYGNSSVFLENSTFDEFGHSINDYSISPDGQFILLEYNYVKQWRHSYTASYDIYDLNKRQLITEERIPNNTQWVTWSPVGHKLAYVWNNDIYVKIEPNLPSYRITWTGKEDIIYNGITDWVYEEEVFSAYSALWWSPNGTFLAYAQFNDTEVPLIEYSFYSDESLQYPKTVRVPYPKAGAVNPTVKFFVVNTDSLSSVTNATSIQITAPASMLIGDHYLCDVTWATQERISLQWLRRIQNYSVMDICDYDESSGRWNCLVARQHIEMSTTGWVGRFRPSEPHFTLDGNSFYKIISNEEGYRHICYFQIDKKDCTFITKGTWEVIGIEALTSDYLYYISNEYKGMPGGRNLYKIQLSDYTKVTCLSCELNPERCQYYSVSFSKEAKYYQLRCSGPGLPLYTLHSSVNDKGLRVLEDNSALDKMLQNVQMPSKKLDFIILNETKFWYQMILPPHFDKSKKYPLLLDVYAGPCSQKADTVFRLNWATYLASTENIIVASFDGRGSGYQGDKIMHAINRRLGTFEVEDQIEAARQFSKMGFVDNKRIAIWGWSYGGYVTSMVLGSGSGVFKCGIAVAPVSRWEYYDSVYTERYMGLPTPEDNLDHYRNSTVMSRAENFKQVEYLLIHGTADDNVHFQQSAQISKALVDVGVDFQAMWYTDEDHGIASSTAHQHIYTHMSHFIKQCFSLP

MFI [1]: 1700
binding result [2]: binds
B1: CD26Ab-01D anti-CD26 IgG1 kappa monoclonal antibody (antibody, V domains shown)
VH: EVQLVESGGGLVQPGGSLRLSCAASGFTINDSYIHWVRQAPGKGLEWVAWIWPYGGFTYYADSVKGRFTISADTSKNTAYLQMNSLRAEDTAVYYCARFLGSSSIMDYWGQGTLVTVSS
VL: DIQMTQSPSSLSASVGDRVTITCRASQDVNSNVAWYQQKPGKAPKLLIFGSGGLYSGVPSRFSGSGSGTDFTLTISSLQPEDFATYYCQQYSSYPLTFGQGTKVETKR

binding result [3]: no binding (tested: 500000 pM)
MFI [1]: 105
B2: CD26Ab-10B anti-CD26 IgG1 kappa monoclonal antibody (antibody, V domains shown)
VH: EVQLVESGGGLVQPGGSLRLSCAASGFTISDYSIHWVRQAPGKGLEWVASIWPYGGFTSYADSVKGRFTISADTSKNTAYLQMNSLRAEDTAVYYCARFHSSSGDMDYWGQGTLVTVSS
VL: DIQMTQSPSSLSASVGDRVTITCRASQDVWGYVAWYQQKPGKAPKLLIFASGALYSGVPSRFSGSGSGTDFTLTISSLQPEDFATYYCQQYFNWPITFGQGTKVEIKR
notes: Very low production; not biotinylated

EC50 (read off the curve) (goat anti-human IgG): ~0.4 nM
MFI [1]: 4360
EC50 (read off the curve) [2]: ~1 nM
B3: CD26Ab-04A anti-CD26 IgG1 kappa monoclonal antibody (antibody, V domains shown)
VH: EVQLVESGGGLVQPGGSLRLSCAASGFAINNYSIHWVRQAPGKGLEWVASIWPYGGFTSYADSVKGRFTISADTSKNTAYLQMNSLRAEDTAVYYCARFFSSYGDMDYWGQGTLVTVSS
VL: DIQMTQSPSSLSASVGDRVTITCRASQDVSGGVAWYQQKPGKAPKLLIYGTSGLYSGVPSRFSGSGSGTDFTLTISSLQPEDFATYYCQQGGDWPITFGQGTKVEIKR
notes: Used biotinylated in some assays; also called CD26-04A

IC50 (read off the curve) [4]: ~0.01 nM
B4: Human adenosine deaminase (ADA) (enzyme, UniProt P00813 1-363, looked up)
chain: MAQTPAFDKPKVELHVHLDGSIKPETILYYGRRRGIALPANTAEGLLNVIGMDKPLTLPDFLAKFDYYMPAIAGCREAIKRIAYEFVEMKAKEGVVYVEVRYSPHLLANSKVEPIPWNQAEGDLTPDEVVALVGQGLQEGERDFGVKARSILCCMRHQPNWSPKVVELCKKYQQQTVVAIDLAGDETIPGSSLLPGHVQAYQEAVKSGIHRTVHAGEVGSAEVVKEAVDILKTERLGHGYHTLEDQALYNRLRQENMHFEICPWSSYLTGAWKPDTEHAVIRLKNDQANYSLNTDDPLIFKSTLDTDYQMTKRDMGFTEEEFKRLNINAAKSSFLPEDEKRELLDLLYKAYGMPPSASAGQNL
notes: Bought reagent; also called Human ADA (R&D systems)
